Among the data in paper PMC12913940 are fold intensity of the co-IP against the other three Atg8 family members values, retold here.

For the assay, the target named is Crassostrea gigas GABARAPL2, Flag-tagged (Crassostrea gigas). In words: co-IP.

Take “Crassostrea gigas starch-binding domain-containing protein 1 (STBD1), HA-tagged (natural protein)”: the fold intensity of the co-IP against the other three Atg8 family members came to 4.4 fold.
